{"source": "the supplement of paper PMC6379048", "test_in_all_cases": "EC50 of free RNA motif oligo competing protein binding to immobilised probe", "key": {"PINX1": {"molecular_target": "T1, PINX1 (UniProt Q96BK5)", "T1 sequence": "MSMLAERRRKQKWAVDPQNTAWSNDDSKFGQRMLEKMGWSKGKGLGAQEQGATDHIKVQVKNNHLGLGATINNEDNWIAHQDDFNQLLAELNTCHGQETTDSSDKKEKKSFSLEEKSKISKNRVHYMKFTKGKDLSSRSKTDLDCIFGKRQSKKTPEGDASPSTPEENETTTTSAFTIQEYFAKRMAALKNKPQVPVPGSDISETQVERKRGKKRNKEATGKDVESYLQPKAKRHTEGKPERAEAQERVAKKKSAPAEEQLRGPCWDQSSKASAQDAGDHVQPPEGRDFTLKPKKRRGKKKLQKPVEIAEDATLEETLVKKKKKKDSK", "summary_of_the_method": "(§1)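 HEK293-FT lysate (2.5 mg protein/well) was pre-incubated 1 h at 4°C with free RNA oligos (0 nM to 30 μM), then 30 min at 4°C with the same 5′-amino-C6 oligos coupled to NHS-Sepharose beads. Bound proteins were quantified by label-free LC-MS/MS in three biological replicates and two independent experiments, and normalised to the water control. EC50 came from a four-parameter log-logistic fit; Kd is EC50 times a protein-dependent depletion factor.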"}, "SF3B2": {"molecular_target": "T2, SF3B2 (UniProt Q13435)", "T2 sequence": "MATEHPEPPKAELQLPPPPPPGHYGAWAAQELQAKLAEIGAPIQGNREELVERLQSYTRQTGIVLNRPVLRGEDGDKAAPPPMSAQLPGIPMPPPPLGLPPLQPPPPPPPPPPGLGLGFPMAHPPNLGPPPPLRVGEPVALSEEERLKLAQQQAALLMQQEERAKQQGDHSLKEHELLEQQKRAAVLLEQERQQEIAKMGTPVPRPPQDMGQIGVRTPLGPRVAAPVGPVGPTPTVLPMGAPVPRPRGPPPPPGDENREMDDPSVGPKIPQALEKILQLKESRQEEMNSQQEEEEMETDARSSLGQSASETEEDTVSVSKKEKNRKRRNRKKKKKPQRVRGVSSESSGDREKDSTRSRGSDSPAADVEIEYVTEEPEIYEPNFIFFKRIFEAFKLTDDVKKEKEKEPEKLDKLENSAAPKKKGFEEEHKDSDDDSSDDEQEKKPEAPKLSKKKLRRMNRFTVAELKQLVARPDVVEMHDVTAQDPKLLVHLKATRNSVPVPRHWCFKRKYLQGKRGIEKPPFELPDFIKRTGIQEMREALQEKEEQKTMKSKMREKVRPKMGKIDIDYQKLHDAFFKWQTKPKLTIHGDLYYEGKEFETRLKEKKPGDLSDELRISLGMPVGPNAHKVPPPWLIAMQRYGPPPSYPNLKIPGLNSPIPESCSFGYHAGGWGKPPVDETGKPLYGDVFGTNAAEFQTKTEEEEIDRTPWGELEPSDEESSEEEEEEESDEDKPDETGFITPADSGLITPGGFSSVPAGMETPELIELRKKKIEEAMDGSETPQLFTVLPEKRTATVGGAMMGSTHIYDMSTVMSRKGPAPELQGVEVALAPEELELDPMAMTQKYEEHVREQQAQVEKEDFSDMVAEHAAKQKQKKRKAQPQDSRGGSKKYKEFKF", "summary_of_the_method": "as §1"}, "TUBB4B": {"molecular_target": "TUBB4B (UniProt P68371)", "sequence (P68371 whole entry)": "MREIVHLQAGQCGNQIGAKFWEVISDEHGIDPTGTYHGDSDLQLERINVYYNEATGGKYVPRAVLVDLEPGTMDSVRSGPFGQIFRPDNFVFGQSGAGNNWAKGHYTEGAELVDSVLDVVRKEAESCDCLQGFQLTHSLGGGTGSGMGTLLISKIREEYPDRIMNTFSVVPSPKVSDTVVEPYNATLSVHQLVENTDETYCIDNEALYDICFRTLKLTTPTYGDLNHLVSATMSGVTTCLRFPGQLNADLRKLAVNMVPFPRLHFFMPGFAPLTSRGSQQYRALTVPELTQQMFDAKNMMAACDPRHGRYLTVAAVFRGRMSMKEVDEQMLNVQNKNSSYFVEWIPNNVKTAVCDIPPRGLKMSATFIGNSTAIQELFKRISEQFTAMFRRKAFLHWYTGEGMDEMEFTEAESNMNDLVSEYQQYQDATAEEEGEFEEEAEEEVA", "summary_of_the_method": "as §1"}, "PCBP2": {"molecular_target": "PCBP2 (UniProt Q15366)", "sequence (Q15366 whole entry)": "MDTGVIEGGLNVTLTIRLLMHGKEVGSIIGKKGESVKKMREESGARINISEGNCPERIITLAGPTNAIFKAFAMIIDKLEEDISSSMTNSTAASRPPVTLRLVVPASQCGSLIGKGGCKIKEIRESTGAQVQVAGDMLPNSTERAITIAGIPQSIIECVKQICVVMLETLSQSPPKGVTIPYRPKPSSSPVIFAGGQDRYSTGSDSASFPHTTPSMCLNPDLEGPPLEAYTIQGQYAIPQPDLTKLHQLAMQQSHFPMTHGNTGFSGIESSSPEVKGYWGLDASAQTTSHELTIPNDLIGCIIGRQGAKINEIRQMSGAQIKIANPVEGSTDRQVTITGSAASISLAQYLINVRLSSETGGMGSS", "summary_of_the_method": "as §1"}, "PCBP1": {"molecular_target": "PCBP1 (UniProt Q15365)", "sequence (Q15365 whole entry)": "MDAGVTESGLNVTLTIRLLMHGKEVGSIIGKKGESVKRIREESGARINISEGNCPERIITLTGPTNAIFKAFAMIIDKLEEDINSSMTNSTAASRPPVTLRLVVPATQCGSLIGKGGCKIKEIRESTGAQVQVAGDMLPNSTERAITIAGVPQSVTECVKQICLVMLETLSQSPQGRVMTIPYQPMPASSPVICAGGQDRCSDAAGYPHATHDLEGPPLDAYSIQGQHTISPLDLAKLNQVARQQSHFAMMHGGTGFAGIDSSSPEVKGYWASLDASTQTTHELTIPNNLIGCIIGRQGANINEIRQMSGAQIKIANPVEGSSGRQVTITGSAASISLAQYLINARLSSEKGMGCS", "summary_of_the_method": "as §1"}, "ZCCHC11": {"molecular_target": "ZCCHC11 (UniProt Q5TAX3)", "sequence (Q5TAX3 whole entry)": "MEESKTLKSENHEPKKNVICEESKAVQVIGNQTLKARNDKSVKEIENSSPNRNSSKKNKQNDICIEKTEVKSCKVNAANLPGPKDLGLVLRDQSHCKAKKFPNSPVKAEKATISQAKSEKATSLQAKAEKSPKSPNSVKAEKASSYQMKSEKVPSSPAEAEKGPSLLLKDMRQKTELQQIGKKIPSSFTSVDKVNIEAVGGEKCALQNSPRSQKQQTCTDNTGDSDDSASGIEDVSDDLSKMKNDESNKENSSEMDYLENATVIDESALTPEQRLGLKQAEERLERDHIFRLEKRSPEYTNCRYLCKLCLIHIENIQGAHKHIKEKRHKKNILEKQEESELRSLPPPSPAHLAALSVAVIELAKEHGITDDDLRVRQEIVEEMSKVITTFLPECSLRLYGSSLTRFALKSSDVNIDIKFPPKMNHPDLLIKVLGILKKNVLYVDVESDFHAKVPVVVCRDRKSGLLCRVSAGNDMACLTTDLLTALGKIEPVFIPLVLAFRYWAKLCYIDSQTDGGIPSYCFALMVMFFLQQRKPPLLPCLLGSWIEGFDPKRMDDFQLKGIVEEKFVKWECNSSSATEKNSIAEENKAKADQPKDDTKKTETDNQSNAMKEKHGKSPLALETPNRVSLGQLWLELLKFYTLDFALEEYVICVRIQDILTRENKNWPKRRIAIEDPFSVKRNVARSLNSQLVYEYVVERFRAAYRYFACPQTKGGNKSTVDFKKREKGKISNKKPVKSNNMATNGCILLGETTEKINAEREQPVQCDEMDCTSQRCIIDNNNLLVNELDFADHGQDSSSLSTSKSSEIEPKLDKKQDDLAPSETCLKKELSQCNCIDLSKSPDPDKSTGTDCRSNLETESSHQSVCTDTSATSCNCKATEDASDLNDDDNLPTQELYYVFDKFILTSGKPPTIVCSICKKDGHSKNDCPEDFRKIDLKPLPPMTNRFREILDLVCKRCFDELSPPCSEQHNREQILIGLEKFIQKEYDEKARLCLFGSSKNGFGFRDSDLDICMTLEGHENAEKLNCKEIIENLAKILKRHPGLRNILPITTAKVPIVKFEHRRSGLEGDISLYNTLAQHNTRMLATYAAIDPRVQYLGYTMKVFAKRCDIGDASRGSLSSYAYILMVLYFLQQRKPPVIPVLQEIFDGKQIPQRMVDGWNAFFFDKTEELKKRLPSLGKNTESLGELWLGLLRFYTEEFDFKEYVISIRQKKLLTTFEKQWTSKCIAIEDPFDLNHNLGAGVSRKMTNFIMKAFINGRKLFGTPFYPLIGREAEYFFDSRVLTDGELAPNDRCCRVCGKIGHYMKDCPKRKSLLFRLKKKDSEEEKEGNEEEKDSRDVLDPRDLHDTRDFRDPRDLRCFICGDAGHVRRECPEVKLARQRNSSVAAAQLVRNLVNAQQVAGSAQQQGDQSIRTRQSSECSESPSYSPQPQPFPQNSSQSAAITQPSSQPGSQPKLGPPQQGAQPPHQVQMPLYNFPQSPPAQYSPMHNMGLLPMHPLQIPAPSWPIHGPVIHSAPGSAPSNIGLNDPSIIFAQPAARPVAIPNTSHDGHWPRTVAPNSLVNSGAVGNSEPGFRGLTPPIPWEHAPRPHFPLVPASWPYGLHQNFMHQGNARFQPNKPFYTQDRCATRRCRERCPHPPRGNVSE", "summary_of_the_method": "as §1"}, "MRPS2": {"molecular_target": "MRPS2 (UniProt Q9Y399)", "summary_of_the_method": "as §1"}, "MRPS18B": {"molecular_target": "MRPS18B (UniProt Q9Y676)", "summary_of_the_method": "as §1"}, "MEX3C": {"molecular_target": "T3, MEX3C (UniProt Q5U5Q3)", "T3 sequence": "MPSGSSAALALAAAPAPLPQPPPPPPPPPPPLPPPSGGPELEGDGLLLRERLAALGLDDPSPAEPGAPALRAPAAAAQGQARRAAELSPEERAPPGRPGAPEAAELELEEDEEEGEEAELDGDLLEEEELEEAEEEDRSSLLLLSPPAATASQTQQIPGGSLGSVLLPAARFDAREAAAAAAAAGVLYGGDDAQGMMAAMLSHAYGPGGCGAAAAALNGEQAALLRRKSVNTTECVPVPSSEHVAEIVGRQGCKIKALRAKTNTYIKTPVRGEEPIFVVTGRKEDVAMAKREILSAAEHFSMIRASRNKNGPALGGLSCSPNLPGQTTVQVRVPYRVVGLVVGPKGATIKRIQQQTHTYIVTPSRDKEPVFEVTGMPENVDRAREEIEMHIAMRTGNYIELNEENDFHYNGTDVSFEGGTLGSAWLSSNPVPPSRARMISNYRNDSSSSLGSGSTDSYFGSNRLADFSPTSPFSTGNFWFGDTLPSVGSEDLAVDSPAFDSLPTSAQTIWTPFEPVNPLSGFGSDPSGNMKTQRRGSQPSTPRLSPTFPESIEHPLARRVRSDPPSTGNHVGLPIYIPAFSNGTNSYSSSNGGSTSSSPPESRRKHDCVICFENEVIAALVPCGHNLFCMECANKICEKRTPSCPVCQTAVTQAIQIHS", "summary_of_the_method": "as §1"}}}
{"sequence": "AAUAAA", "values": [{"measurement": "EC50", "setting": "PINX1", "result": 2.13, "unit": "µM"}, {"measurement": "EC50", "setting": "SF3B2", "result": 1.18, "unit": "µM"}, {"measurement": "EC50", "setting": "TUBB4B", "result": 1.41, "unit": "µM"}]}
{"sequence": "CUGUCCU", "values": [{"measurement": "EC50", "setting": "PCBP2", "result": 3.39, "unit": "µM"}, {"measurement": "EC50", "setting": "PCBP1", "result": 3.36, "unit": "µM"}]}
{"sequence": "UAUUUAU", "values": [{"measurement": "EC50", "setting": "ZCCHC11", "result": 0.108, "unit": "µM"}, {"measurement": "EC50", "setting": "MRPS2", "result": 0.0291, "unit": "µM"}, {"measurement": "EC50", "setting": "MRPS18B", "result": 0.0514, "unit": "µM"}, {"measurement": "EC50", "setting": "MEX3C", "result": 0.799, "unit": "µM"}]}
